In patent US20050196404A1:

Key:
[1] = target: E-hsp60 SCT (HLA-E SCT harboring the hsp60-derived peptide …) (human); assay: flow cytometry, stably transfected LLC-PK1 cells
[2] = target: E-Cw*03 SCT (HLA-E single chain trimer with the peptide …) (human); assay: flow cytometry, stably transfected LLC-PK1 cells
[3] = target: HLA-E SCD (HLA-E single chain dimer) (human); assay: flow cytometry, stably transfected LLC-PK1 cells
[4] = target: E-Cw*03 SCT (HLA-E single chain trimer with the peptide …) (human); assay: flow cytometry, sorted E-Cw*03 SCT LLC-PK1 stable transfectants

fold less staining than E-Cw*03 SCT [1] [fold]	Substance	mean fluorescent intensity (MFI) [2] [MFI]	mean fluorescent intensity (MFI) [3] [MFI]	percent of cells stained [4] [%]
4 to 5	HLA-E-specific mAb MEM-E/6 (antibody)			
	HLA-E-specific mAb 3D12 (antibody)	375	62	100
